{"source": "IntAct's records for PubMed 24446487", "target": "ospg_shifl ospG (UniProt Q99PZ6)", "sequence (Q99PZ6 whole entry)": "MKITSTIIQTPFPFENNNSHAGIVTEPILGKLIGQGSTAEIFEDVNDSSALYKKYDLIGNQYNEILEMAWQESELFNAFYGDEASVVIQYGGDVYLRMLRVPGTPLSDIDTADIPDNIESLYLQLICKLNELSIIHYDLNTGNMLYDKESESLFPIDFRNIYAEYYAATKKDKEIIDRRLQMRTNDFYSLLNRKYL"}
{"substance": "Ubiquitin-conjugating enzyme E2 D3 (Homo sapiens), P61077 F62A", "values": [{"measurement": "effect of a mutation on the interaction", "result": "disrupting interaction"}]}
